Measurements taken from US20230322953A1 (HARBOUR BIOMED SHANGHAI, published 2023).
Where two headings read alike, the source gives them in different places.

Assays:
[1] = target: T1, human CD3 (TCR/CD3 complex) on human T cells (human, UniProt P07766 23-207); test: flow cytometry (FACS) on human T cells, Experiment 3
T1 construct: whole, on cells

[2] = target: T2, human BCMA on NCI-H929 cells (ATCC, CRL-9068) (human, UniProt Q02223 1-184); test: cell-based or functional assay
T2 sequence (looked up): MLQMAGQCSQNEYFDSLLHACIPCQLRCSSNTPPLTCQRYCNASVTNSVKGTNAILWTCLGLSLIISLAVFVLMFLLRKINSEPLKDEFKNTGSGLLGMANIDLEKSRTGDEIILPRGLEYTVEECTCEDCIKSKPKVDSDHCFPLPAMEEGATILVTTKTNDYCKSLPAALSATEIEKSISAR

[3] = target: T2, human BCMA on NCI-H929 cells (ATCC, …); test: cell-based or functional assay; remark: listed apart in the source
[4] = target: T3, cynomolgus monkey CD3 (TCR/CD3 complex) on cynomolgus monkey T cells (cynomolgus monkey); test: flow cytometry (FACS) on cynomolgus monkey T cells
T3 construct: whole, on cells
T3 sequence (Q95LI5 22-198, one chain of several): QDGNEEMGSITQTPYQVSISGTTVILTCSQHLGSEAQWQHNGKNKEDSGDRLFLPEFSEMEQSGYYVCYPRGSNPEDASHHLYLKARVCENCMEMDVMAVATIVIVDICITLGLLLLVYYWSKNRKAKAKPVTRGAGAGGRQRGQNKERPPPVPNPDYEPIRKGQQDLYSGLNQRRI

[5] = target: T4, biotinylated human BCMA-Fc, Avitag recombinant protein (ACRO Biosystems, #BC7-H82F0) (human, UniProt Q02223 1-54, biotinylated (Avitag)); test: BLI (Octet Red96e), biotinylated BCMA-Fc on SA sensor, 1:1 global fitting;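 note: Anti-BCMA antibodies analysed as binding partners of the captured BCMA antigen, with reference signals removed by double referencing before kinetic fitting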
T4 construct: extracellular domain; Bought protein; also called huBCMA.Fc; recombinant human BCMA-ECD-Fc
T4 sequence (looked up): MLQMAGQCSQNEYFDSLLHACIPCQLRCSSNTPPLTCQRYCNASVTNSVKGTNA

[6] = target: T2, human BCMA on NCI-H929 cells (ATCC, …); test: cell-based or functional assay; remark: listed apart in the source
[7] = target: T2, human BCMA on NCI-H929 cells (ATCC, …); test: cell-based or functional assay; remark: listed apart in the source
[8] = target: T5, cynomolgus monkey BCMA (ACRO Biosystems, #BCA-C82F4) (cynomolgus monkey, UniProt A0A2K5UD97 1-53); test: BLI (Octet Red96e), cyBCMA.Fc
T5 construct: Bought protein; also called cyBCMA.Fc
T5 sequence (A0A2K5UD97 entry or part of it): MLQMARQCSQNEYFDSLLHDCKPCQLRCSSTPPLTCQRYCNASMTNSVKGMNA

T1 sequence (P07766 23-207, one chain of several): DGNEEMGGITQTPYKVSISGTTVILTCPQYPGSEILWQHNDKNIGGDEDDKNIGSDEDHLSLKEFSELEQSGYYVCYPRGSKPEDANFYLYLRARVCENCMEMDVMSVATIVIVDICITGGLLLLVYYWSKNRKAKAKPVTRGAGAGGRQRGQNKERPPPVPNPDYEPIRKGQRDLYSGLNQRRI

B1: PR002199, BCMA × CD3 bispecific antibody derived from WO2019133761A1 (bispecific antibody, human IgG1, kappa, L234A L235A)
chain 1: not shown
chain 2: EVQLVESGGGLVQPGRSLRLSCAASGFTFDDYAMHWVRQAPGKGLEWVSGISWNSGSIGYADSVKGRFTISRDNAKNSLYLQMNSLRAEDTALYYCAKDSRGYGDYRLGGAYWGQGTLVTVSSASTKGPSVFPLAPSSKSTSGGTAALGCLVKDYFPEPVTVSWNSGALTSGVHTFPAVLQSSGLYSLSSVVTVPSSSLGTQTYICNVNHKPSNTKVDKKVEPKSCDKTHTCPPCPAPEAAGGPSVFLFPPKPKDTLMISRTPEVTCVVVDVSHEDPEVKFNWYVDGVEVHNAKTKPREEQYNSTYRVVSVLTVLHQDWLNGKEYKCKVSNKALGAPIEKTISKAKGQPREPQVYTLPPCREEMTKNQVSLWCLVKGFYPSDIAVEWESNGQPENNYKTTPPVLDSDGSFFLYSKLTVDKSRWQQGNVFSCSVMHEALHNHYTQKSLSLSPGK
chain 3: EVQLLESGGGLVQPGGSLRLSCAASGFTVSSYGMSWVRQAPGKGPEWVSGIRGSDGSTYYADSVKGRFTISRDNSKNTLYLQMNSLRAEDTAVYYCAKQGENDGPFDHRGQGTLVTVSSGGGGSEVQLLESGGGLVQPGGSLRLSCAASGFTVSSYGMSWVRQAPGKGPEWVSGIRGSDGSTYYADSVKGRFTISRDNSKNTLYLQMNSLRAEDTAVYYCAKQGENDGPFDHRGQGTLVTVSSASEPKSSDKTHTCPPCPAPEAAGGPSVFLFPPKPKDTLMISRTPEVTCVVVDVSHEDPEVKFNWYVDGVEVHNAKTKPREEQYNSTYRVVSVLTVLHQDWLNGKEYKCKVSNKALGAPIEKTISKAKGQPREPQVCTLPPSREEMTKNQVSLSCAVKGFYPSDIAVEWESNGQPENNYKTTPPVLDSDGSFFLVSKLTVDKSRWQQGNVFSCSVMHEALHNHYTQKSLSLSPGK
notes: Three polypeptide chains; also called Positive control 2
Question: How did the “Maximum MFI” value [1] turn out when B1 was run?
Answer: 6850 MFI

Question: And the “IFN-γ release, EC50” value [2]?
Answer: 0.261 nM

Question: What about the “IFN-γ release, Maximum” value [2] of the same binder?
Answer: 658 pg/mL

Question: And the “IL-2 release, EC50” value [2]?
Answer: 0.312 nM

Question: What about the “IL-2 release, Maximum” value [2] of the same binder?
Answer: 25.8 pg/mL

Question: And the “IL-6 release, EC50” value [2]?
Answer: 0.341 nM

Question: And the “IL-6 release, Maximum” value [2]?
Answer: 71.4 pg/mL

Question: What about the “IL-10 release, EC50” value [2] of the same binder?
Answer: 0.335 nM

Question: What about the “IL-10 release, Maximum” value [2] of the same binder?
Answer: 190 pg/mL

Question: What about the “NCI-H929 killing, EC50” value [2] of the same binder?
Answer: 0.115 nM

Question: And the “NCI-H929 killing, Maximum killing rate %” value [2]?
Answer: 62%

Question: What about the “TNF-α release, EC50” value [2] of the same binder?
Answer: 0.224 nM

Question: And the “TNF-α release, Maximum” value [2]?
Answer: 1020 pg/mL

Question: And the “IFN-γ release, EC50” value [3]?
Answer: 0.483 nM

Question: And the “IFN-γ release, Maximum” value [3]?
Answer: 1020 pg/mL

Question: And the “IL-2 release, EC50” value [3]?
Answer: 2.27 nM

Question: What about the “IL-2 release, Maximum” value [3] of the same binder?
Answer: 21.5 pg/mL

Question: And the “IL-6 release, EC50” value [3]?
Answer: 13.1 nM

Question: And the “IL-6 release, Maximum” value [3]?
Answer: 245 pg/mL

Question: What about the “IL-10 release, EC50” value [3] of the same binder?
Answer: 0.861 nM

Question: What about the “IL-10 release, Maximum” value [3] of the same binder?
Answer: 583 pg/mL

Question: And the “NCI-H929 killing, EC50” value [3]?
Answer: 0.16 nM

Question: What about the “NCI-H929 killing, Maximum killing rate %” value [3] of the same binder?
Answer: 61.2%

Question: And the “TNF-α release, EC50” value [3]?
Answer: 0.464 nM

Question: And the “TNF-α release, Maximum” value [3]?
Answer: 608 pg/mL

Question: What about the “Maximum MFI” value [4] of the same binder?
Answer: 1110 MFI

Question: What about the Kd [5] of the same binder?
Answer: 0.0452 nM

Question: What about the koff [5] of the same binder?
Answer: 2.46e-05 s⁻¹

Question: And the kon [5]?
Answer: 545000 M⁻¹ s⁻¹

Question: And the “Killing EC50 (nM), PBMC + NCI-H929, + 62.5 ng/ml sBCMA” value [6]?
Answer: 0.8 nM

Question: What about the “Killing EC50 (nM), PBMC + NCI-H929, + 125 ng/ml sBCMA” value [6] of the same binder?
Answer: 1 nM

Question: And the “Killing EC50 (nM), PBMC + NCI-H929, + 250 ng/ml sBCMA” value [6]?
Answer: 3.5 nM

Question: What about the “Killing EC50 (nM), PBMC + NCI-H929, + 500 ng/ml sBCMA” value [6] of the same binder?
Answer: 7.7 nM

Question: And the “Killing EC50 (nM), PBMC + NCI-H929, no sBCMA” value [6]?
Answer: 0.2 nM

Question: What about the “Killing EC50 (nM), PBMC + NCI-H929, + 10 ng/mL sBAFF” value [7] of the same binder?
Answer: 0.063 nM

Question: What about the “Killing EC50 (nM), PBMC + NCI-H929, + 10 ng/ml sAPRIL” value [7] of the same binder?
Answer: 0.096 nM

Question: What about the “Killing EC50 (nM), PBMC + NCI-H929, + 100 ng/mL sBAFF” value [7] of the same binder?
Answer: 0.076 nM

Question: What about the “Killing EC50 (nM), PBMC + NCI-H929, + 100 ng/ml sAPRIL” value [7] of the same binder?
Answer: 0.253 nM

Question: And the “Killing EC50 (nM), PBMC + NCI-H929, no soluble ligand” value [7]?
Answer: 0.103 nM

Question: Does B1 bind [8]?
Answer: no binding
